# Laboratory results reported in patent US20100021473A1 (DOMANTIS, published 2010).
# Changes are numbered by the printed parent chain.
# T1: NCA on H647 cells (UniProt P40199 35-320, limits assumed)
# T1 construct: whole, on cells; Its identity is an inference
# T1 sequence (looked up): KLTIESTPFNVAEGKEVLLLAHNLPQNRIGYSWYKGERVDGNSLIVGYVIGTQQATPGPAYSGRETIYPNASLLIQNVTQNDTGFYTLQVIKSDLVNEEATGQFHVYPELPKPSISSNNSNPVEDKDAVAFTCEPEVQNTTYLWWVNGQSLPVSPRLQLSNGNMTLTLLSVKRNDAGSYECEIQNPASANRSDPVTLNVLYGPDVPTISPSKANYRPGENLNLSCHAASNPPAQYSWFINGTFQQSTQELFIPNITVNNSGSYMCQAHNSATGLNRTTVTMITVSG
# T2: CEA immobilised on Biacore CM5 chip (UniProt P06731 35-685, limits assumed)
# T2 construct: also called DOM13
# T2 sequence (looked up): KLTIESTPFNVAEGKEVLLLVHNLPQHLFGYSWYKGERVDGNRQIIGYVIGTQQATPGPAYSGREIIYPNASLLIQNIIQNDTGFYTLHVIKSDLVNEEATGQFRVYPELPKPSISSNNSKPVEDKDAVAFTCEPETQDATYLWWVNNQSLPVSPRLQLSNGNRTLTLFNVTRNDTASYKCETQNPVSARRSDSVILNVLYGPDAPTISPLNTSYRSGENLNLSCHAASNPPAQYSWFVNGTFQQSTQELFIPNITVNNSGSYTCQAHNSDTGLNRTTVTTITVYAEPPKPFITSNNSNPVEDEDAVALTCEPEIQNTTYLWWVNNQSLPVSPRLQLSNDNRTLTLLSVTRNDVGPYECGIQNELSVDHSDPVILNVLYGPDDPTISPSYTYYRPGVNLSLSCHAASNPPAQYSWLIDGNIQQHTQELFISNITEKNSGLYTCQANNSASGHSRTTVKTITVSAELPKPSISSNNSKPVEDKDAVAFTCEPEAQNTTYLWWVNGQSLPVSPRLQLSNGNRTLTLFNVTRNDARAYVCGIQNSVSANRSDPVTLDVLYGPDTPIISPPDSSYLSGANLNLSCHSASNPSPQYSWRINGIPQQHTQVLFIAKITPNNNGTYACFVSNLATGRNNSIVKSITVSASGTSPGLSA
# T3: CD138 on cells (UniProt P18827 23-310)
# T3 construct: whole, on cells; Endogenous CD138 on cell lines used in FACS; also called DOM12; syndecan-1
# T3 sequence (looked up): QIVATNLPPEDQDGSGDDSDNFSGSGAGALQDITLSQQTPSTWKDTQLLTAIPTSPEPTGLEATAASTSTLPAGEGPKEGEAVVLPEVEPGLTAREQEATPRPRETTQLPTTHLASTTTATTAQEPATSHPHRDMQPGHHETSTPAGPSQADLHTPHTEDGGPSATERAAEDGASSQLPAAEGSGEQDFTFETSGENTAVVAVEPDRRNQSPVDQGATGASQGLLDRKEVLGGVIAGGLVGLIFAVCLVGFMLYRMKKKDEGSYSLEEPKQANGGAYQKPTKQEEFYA
# B1: DOM13-74 (other)
# chain: DIQMTQSPSSLSASVGDRVTITCRASQPIKMMLSWYQQKPGKAPKLLIYNNSTLQSGVPSRFSGSGSGTDFTLTISSLQPEDFATYYCQQYRRWPYTFSQGTKVEIKR
# notes: Anti-CEA dAb monomer
# B2: DOM12-26 (other)
# chain: DIQMTQSPSSLSASVGDRVTITCRASQDIFTKLRWYQQKPGKAPRLLIYAGSRLQSGVPSRFSGSGSGTDFTLTISSLQPEDFATYYCQQVKQKPWTFGQGTKVEIKR
# notes: Anti-CD138 dAb monomer
# B3: DOM11-7 (other)
# chain: DIQMTQSPSSLSASVGDRVTITCRASQYINTLLSWYQQKPGKAPKLLIYAQSRLQSGVPSRFSGSGSGTDFTLTISSLQPEDFATYYCQQFAFRPYTFGQGTKVEIKR
# notes: Anti-CD38 dAb monomer
# B4: DOM13-25 (other)
# chain: B3 chain with Y28S, N30G, T31P, L32W, A50Q, Q51V, F91N, A92L, F93A, R94P
# notes: Anti-CEA dAb monomer
# B5: DOM11-30/DOM12-45 anti-CD38/anti-CD138 dual specific ligand (bispecific antibody, part only; not given: linker between dAbs, not shown: small tags and cut ends)
# chain, part: DIQITQSPSSLSASVGDRITITCRASQKIENDLAWYQQKPGKAPKLLIYYTSILQSGVPSRFSGSGSGTDFTLTISSLQPEDFATYYCQQRRYVPATFGQGTKVEIKRDIQMTQSPSSLSASVGDRVTITCRASQDIGDRLRWYQQKPGKAPKLLIYHGSRLESGVPSRFSGSRSGTDFTLTISSLQPEDFATYYCQQQWFRPYTFGQGTKVEIKR
# B6: DOM11-3/DOM12-45 anti-CD38/anti-CD138 dual specific ligand (bispecific antibody)
# chain: DIQMTQSPSSLSASVGDRVTITCRASQNIDSRLSWYQQKPGKAPKLLIYRTSVLQSGVPSRFSGSGSGTDFTLTISSLQPEDFATYYCQQWDMFPLTFGQGTKVEIKRSSGGGGSGGGGSGGGGSGGGGSGGGGSTDIQMTQSPSSLSASVGDRVTITCRASQDIGDRLRWYQQKPGKAPKLLIYHGSRLESGVPSRFSGSRSGTDFTLTISSLQPEDFATYYCQQQWFRPYTFGQGTKVEIKR
# notes: In-line fusion of two dAbs, expressed in E. coli; also called DOM11-3/12-45
# B7: DOM11-3-15/DOM12-45-1 (bispecific antibody)
# chain: B6 chain with T51A, S65T, T97S, K175N, S201N
# B8: DOM11-30 (other)
# chain: DIQITQSPSSLSASVGDRITITCRASQKIENDLAWYQQKPGKAPKLLIYYTSILQSGVPSRFSGSGSGTDFTLTISSLQPEDFATYYCQQRRYVPATFGQGTKVEIKR
# notes: Anti-CD38 dAb monomer
# B9: DOM12-17 (other)
# chain: B8 chain with I4M, I19V, K28S, E30G, D32N, A34L, I53R, Y93T, V94H, A96H
# notes: Anti-CD138 dAb monomer
# B10: DOM14-23/DOM12-45 anti-CD138/anti-CD56 dual specific ligand (bispecific antibody, part only; not given: linker between dAbs, not shown: small tags and cut ends)
# chain, part: DIQMTQSPSSLSASVGDRVTITCRASQDIFPFLNWYQQKPGKAPELLIYRASILHSGVPSRFSGSGSGTDFTLTISSLQPEDFATYYCQQIARSPRTFGQGTKVEIKRDIQMTQSPSSLSASVGDRVTITCRASQDIGDRLRWYQQKPGKAPKLLIYHGSRLESGVPSRFSGSRSGTDFTLTISSLQPEDFATYYCQQQWFRPYTFGQGTKVEIKR
# B11: DOM13-59 (other)
# chain: DIQMTQSPSSLSASVGDRVTITCRASQKIMTHLRWYQQKPGKAPKLLIYGGSHLQSGVPSRFSGSGSGTDFTLTISSLQPEDFATYYCQQTWVSPMTFGQGTKVEIRR
# notes: Anti-CEA dAb monomer
# Tests used:
# NCA on H647 cells = target: T1, NCA on H647 cells; experiment: FACS on H647 cells (CEA-/NCA+)
# Experimental: (§1) All dAbs were analysed by FACS on antigen positive and negative cell lines using the following method.
# (§2) The determination of cell binding by FACS was carried out as follows: cells were centrifuged at 250 g for 5 minutes and the growth medium was removed. The cells were resuspended in FACS incubation buffer at 4° C. at a density of 2×10⁶ cells/ml. The cells were blocked by incubating for 15 minutes at 4° C. in FACS incubation buffer. Fifty microliters of 2× stock of primary antibody (anti-CD38 FITC, anti-CD138 FITC or mIgG1 FITC conjugated isotype control (all BD Biosciences) was added; or dAb was added to cells in FACS incubation buffer and incubated for 30-60 minutes at 4° C. The cells were then washed once in FACS incubation buffer. One hundred microliters of secondary antibody (rabbit anti-Vk) was added to cells in FACS incubation buffer and incubated 30-60 minutes at 4° C. The cells were washed once in FACS incubation buffer. Then 100 ul of 1× tertiary antibody was added to the cells in FACS incubation buffer and incubated for 30-60 mins at 4° C. (for dAbs the tertiary antibody is anti-rabbit FITC (Sigma)). The cells were washed twice in FACS incubation buffer. The cell pellet was resuspend in 200 ul FACS incubation buffer+viable cell marker (BD Viaprobe). The cells were then analyzed by flow cytometry.
# [1] = target: T2, CEA immobilised on Biacore CM5 chip; experiment: Biacore, CEA immobilised
# Experimental: (§3) Anti-CD38, anti-CEA and anti-CD56 dAbs that were identified as FACS positive clones were in addition analysed by Biacore using the following procedure. The CM5 chip surface was activated by flushing 1:1 EDC/NHS (0.4M1-ethyl-3-(3-dimenthylaminopropyl)-carbodiimide in water; 0.1 M N-hydroxysuccinimide in water) at a flow rate of 5 uL/min for 10 minute contact time. CD38 was immobilised at 500 nM in Acetate buffer pH4 at 5 uL/min this was repeated until the RUs reached between 500 and 1000 (low density). CEA and CD56 were coupled in acetate buffer pH 4.5. Any excess reactive groups were deactivated by running 1M ethanolamine-HCl over the CM5 chip (again 5 uL/min for 7 mins). The affinities of the anti-CD38, anti-CEA and anti-CD56 dAbs were measured on the biacore as described above.
# CD138 on cells [2] = target: T3, CD138 on cells; experiment: FACS on RPMI cells (CD38+/138+)
# Experimental: as §1, §2
# CD38 on cells = target: T4, CD38 on cells (UniProt P28907 1-300); experiment: FACS on RPMI cells (CD38+/138+)
# T4 construct: whole, on cells; Endogenous CD38 on cell lines used in FACS or microscopy; also called DOM11; T10
# Experimental: as §1, §2
# CD138 on cells [3] = target: T3, CD138 on cells; experiment: FACS on HUVEC cells (CD38-/CD138+)
# Experimental: as §1, §2
# [4] = target: T5, CD38 and CD138 co-expressed on cells (CD38+/CD138+ double positive cells) (UniProt P28907 1-300; P18827 23-310); experiment: cell-based or functional assay
# T5 construct: whole, on cells; Two separate membrane proteins on the same cell, not a complex; also called RPMI8226; OPM2
# CD138 on cells [5] = target: T3, CD138 on cells; experiment: FACS dot plot (FSC-H against FL1-H) on H647 cells (CD38-/CD138+), ligand at 50 nM
# [6] = target: T5, CD38 and CD138 co-expressed on cells …; experiment: FACS cell binding titration on OPM2 cells (CD38+/CD138+), arithmetic mean fluorescence. The table prints no unit; the unit is taken from the x axis 'log conc in nm' (nanomolar).
# Experimental: as §2
# Anti-CD38 and anti-CD138 affinity matured dAbs were paired to create dual specific ligands by cloning an anti-CD38 dAb and an anti-CD138 dAb into a dual expression vector. To determine if the increased affinity of the monomers was reflected in increased binding affinity of the dual specific ligand, a range of the affinity matured anti-CD38 dAbs were paired with the anti-CD138 dAb DOM12-45, a range of affinity matured anti-CD138 dAbs were paired with anti-CD38 dAbs, and a range of affinity matured anti-CD38 dAbs and affinity matured anti-CD138 dAbs were paired. All dual specific ligands were expressed in E. coli and purified using protein L agarose followed by Resource S cation exchange chromatography when required. The binding affinity of the dual specific ligands was assessed by FACS as described previously. In this study, a range of concentrations was used to allow determination of EC50.
# [7] = target: T5, CD38 and CD138 co-expressed on cells …; experiment: FACS cell binding titration on OPM2 cells (CD38+/CD138+), arithmetic mean fluorescence against log conc in nm
# [8] = target: T6, CD38 immobilised on Biacore CM5 chip (UniProt P28907 43-300, limits assumed); experiment: Biacore, CD38 immobilised
# T6 construct: also called DOM11
# Experimental: as §3
# Affinity maturation libraries were created for the anti-CD38 dAbs DOM11-3 and DOM11-30 by error prone PCR. […] Initial screening was carried out by BIAcore (as described previously) and subsequently by FACS.
# [9] = target: T6, CD38 immobilised on Biacore CM5 chip; experiment: SPR (Biacore), CD38 immobilised on CM5 chip
# Experimental: as §3
# [10] = target: CD138 and CD56 co-expressed on cells (CD138+/CD56+ double positive cells) (UniProt P18827); experiment: cell-based or functional assay
binder,measurement,setting,value
B1,binding result,NCA on H647 cells,no binding
same,Kd,[1],100 to 200 nM
B2,binding result,CD138 on cells [2],binds
B3,binding result,CD38 on cells,binds
same,binding result,CD138 on cells [3],no binding
B4,binding result,NCA on H647 cells,no binding
same,Kd,[1],100 to 200 nM
B5,% internalized,[4],8%
B6,percent of cells right of the FL1-H gate line,CD138 on cells [5],3%
same,EC50,[6],44.4 nM
B7,EC50 (read off the curve),[7],100 nM
B8,Kd,[8],190 to 230 nM
same,Kd,[9],150 nM
B9,binding result,CD138 on cells [2],binds
B10,% internalized,[10],43%
B11,binding result,NCA on H647 cells,no binding
same,Kd,[1],400 to 800 nM
